PMC5656576

What was measured:
[1] = target: NP (nucleoprotein), His-tagged (Influenza A virus, UniProt P03466 1-498); experiment: EMSA; details: protein: recombinant; tags: C-terminal His tag (encoded in primer); label: 32P; single strand; partly complementary ends
[2] = target: NP in preformed NP-UAP56 complex (Influenza A virus, UniProt P03466 1-498); experiment: EMSA; details: protein: recombinant; tags: C-terminal His tag (encoded in primer); chain copies: 6; label: 32P; single strand; partly complementary ends
[3] = target: T1, UAP56 (UniProt Q13838 1-428); experiment: EMSA; details: protein: recombinant; tags: GST tag removed with PreScission protease; chain copies: 2; label: 32P; single strand; partly complementary ends
[4] = target: T1, UAP56; experiment: EMSA; UAP56 alone, 0.8-7.2 pmol; details: protein: recombinant; tags: GST tag removed with PreScission protease; chain copies: 2; label: 32P; single strand; partly complementary ends

Chain of NP (nucleoprotein), His-tagged (P03466 whole entry): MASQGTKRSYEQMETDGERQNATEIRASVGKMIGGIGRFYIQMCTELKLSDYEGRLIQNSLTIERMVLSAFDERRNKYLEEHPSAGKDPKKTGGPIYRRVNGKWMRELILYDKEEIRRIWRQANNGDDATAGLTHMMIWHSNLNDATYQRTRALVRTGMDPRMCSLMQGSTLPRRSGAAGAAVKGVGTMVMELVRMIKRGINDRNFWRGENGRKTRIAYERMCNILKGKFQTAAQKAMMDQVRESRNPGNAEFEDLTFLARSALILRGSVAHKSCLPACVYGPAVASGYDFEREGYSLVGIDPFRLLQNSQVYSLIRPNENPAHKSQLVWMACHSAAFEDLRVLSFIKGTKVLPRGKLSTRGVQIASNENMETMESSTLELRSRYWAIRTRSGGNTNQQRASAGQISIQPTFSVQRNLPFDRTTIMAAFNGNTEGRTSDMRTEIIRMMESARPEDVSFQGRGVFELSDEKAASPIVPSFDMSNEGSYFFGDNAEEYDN
Chain of NP in preformed NP-UAP56 complex (P03466 whole entry, one chain of several): as the sequence (P03466 whole entry) above
T1 sequence (Q13838 whole entry): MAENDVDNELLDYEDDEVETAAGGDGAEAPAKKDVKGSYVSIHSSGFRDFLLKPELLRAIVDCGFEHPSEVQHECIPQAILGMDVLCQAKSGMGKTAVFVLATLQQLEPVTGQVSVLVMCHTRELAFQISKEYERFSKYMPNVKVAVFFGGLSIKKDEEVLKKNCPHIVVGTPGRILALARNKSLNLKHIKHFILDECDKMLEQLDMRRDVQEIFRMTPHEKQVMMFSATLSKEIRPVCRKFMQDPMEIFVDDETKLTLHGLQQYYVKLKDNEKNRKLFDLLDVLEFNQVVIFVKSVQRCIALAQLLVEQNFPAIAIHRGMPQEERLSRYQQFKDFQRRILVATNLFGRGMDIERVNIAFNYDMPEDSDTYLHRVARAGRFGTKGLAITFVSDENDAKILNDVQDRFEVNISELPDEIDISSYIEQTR

B1: 53 nt model vRNA (ssRNA)
RNA: AGUAGAAACAAGGGUGUUUUUUCAUAUCAUUUAAACUUCACCCUGCUUUUGCU
Q: What does the source list for B1?
A: binding result [1]: binds; binding result [2]: binds; binding result [3]: no binding

B2: 165 nt model vRNA (ssRNA)
RNA: AGUAGAAACAAGGUCGUUUUUAAACUAUUCGACACUAAUUGAUGGCCAUCCGAAUUUAUGGUCCACGGUGGUUUUUGUGAGUAUCUCGCGGGUGCGAGACUGCGACAUUAGAUUUCUUAGUUCUUUUAUUCUUUCCAUAUUGAAUAUAAUUGACCUGCUUUCGCU
Q: Does B2 bind [1]?
A: binds

Q: Does B2 bind [2]?
A: binds

Q: Does B2 bind [4]?
A: no binding
